This series concerns Escherichia coli TOP10. Briefly: shrunken log2 fold change of peptide-encoding DNA abundance (4.5 h post-induction vs induction); higher = less antimicrobial activity (less host growth inhibition). The following applies: time post-induction: 4.5 h; library: site-saturation at positions 5, 18, 19, 20.
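Also: peptides expressed intracellularly from a pBAD plasmid library in pooled LB shake-flask culture, induced with 0.3% L-arabinose, DNA abundance read by NGS, three biological replicates, DESeq2 with apeglm shrinkage.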

With RRIRCRPPRLPRPRPRPKVSPRP, the “shrunken log2 fold change” value is 0.0213.
For RRIRIRPPRLPRPRPRPATRPRP the value was 0.19.
For RRIRGRPPRLPRPRPRPMMLPRP the value was 0.158; for RRIRQRPPRLPRPRPRPLHAPRP, 0.164; for RRIRTRPPRLPRPRPRPQPIPRP, 0.0337.
For RRIRKRPPRLPRPRPRPHGQPRP the value was -0.0371.
Regarding RRIRKRPPRLPRPRPRPVRVPRP, the “shrunken log2 fold change” value amounted to 0.591.
For RRIRIRPPRLPRPRPRPMNPPRP the value was -0.372; for RRIRERPPRLPRPRPRPYMAPRP, -0.137; for RRIRLRPPRLPRPRPRPICYPRP, -0.284.
Under RRIRNRPPRLPRPRPRPGKTPRP stands 0.0837; under RRIRLRPPRLPRPRPRPPIIPRP, -0.195.
For RRIRVRPPRLPRPRPRPQRPPRP the value was 0.306.
Consider RRIRRRPPRLPRPRPRPVEWPRP, for which the “shrunken log2 fold change” value is -0.182.
For RRIRQRPPRLPRPRPRPGHAPRP the value was 0.116; for RRIRYRPPRLPRPRPRPDWNPRP, -0.428; for RRIRTRPPRLPRPRPRPPPHPRP, 0.907.
For RRIRYRPPRLPRPRPRPVFNPRP the value was -1.32.
For RRIRARPPRLPRPRPRPQPGPRP the value was 0.563.
As for RRIRPRPPRLPRPRPRPSREPRP, the “shrunken log2 fold change” value is 0.113.
Consider RRIRLRPPRLPRPRPRPLREPRP, for which the “shrunken log2 fold change” value was 0.332.
For RRIRARPPRLPRPRPRPFTQPRP, the “shrunken log2 fold change” value was -0.0692.
For RRIRERPPRLPRPRPRPTMTPRP the value was -0.389; for RRIRYRPPRLPRPRPRPNRDPRP, -0.0959.
For RRIRIRPPRLPRPRPRPYRSPRP the value was -0.186; for RRIRKRPPRLPRPRPRPRGDPRP, 0.396; for RRIRHRPPRLPRPRPRPTQGPRP, 0.318.
For the sequence RRIRARPPRLPRPRPRPTVEPRP, the “shrunken log2 fold change” value was 1.19.
For RRIRGRPPRLPRPRPRPRQFPRP the value was 0.354; for RRIRTRPPRLPRPRPRPWFTPRP, 0.00948; for RRIRERPPRLPRPRPRPVMVPRP, 0.204.
RRIRERPPRLPRPRPRPVNLPRP: the “shrunken log2 fold change” value was -0.441.
For RRIRLRPPRLPRPRPRPLYHPRP the value was -0.648; for RRIRQRPPRLPRPRPRPIKIPRP, -0.0595.
On to RRIRTRPPRLPRPRPRPVYDPRP, for which the “shrunken log2 fold change” value was -0.156.
For RRIRTRPPRLPRPRPRPLSDPRP the value was -0.029.
As to RRIRVRPPRLPRPRPRPGSNPRP, the “shrunken log2 fold change” value was found to be 0.0377.
RRIRTRPPRLPRPRPRPVVVPRP: the “shrunken log2 fold change” value stood at 0.0543.
On to RRIRLRPPRLPRPRPRPYKMPRP, for which the “shrunken log2 fold change” value was -0.851.
Under RRIRMRPPRLPRPRPRPICCPRP stands -0.00414.
For RRIRVRPPRLPRPRPRPMKPPRP the value was -0.0376; for RRIRLRPPRLPRPRPRPQKVPRP, 0.0989.
Under RRIRARPPRLPRPRPRPEKRPRP stands 0.128; under RRIRSRPPRLPRPRPRPMSDPRP, -0.195.
On to RRIRVRPPRLPRPRPRPGMCPRP, for which the “shrunken log2 fold change” value is 0.00908.
Regarding RRIRHRPPRLPRPRPRPMQRPRP, the “shrunken log2 fold change” value is 0.138.
Under RRIRYRPPRLPRPRPRPIICPRP stands -0.185.
For RRIRTRPPRLPRPRPRPAFHPRP the value was 0.0779.
Under RRIRIRPPRLPRPRPRPGLYPRP stands -0.0503; under RRIRARPPRLPRPRPRPEVQPRP, 0.76.
With RRIRQRPPRLPRPRPRPRDTPRP, the “shrunken log2 fold change” value turned out to be 0.0606.
In the case of RRIRYRPPRLPRPRPRPDRIPRP, the “shrunken log2 fold change” value was -0.00973.
Under RRIRMRPPRLPRPRPRPMQSPRP stands 0.886.
For RRIRARPPRLPRPRPRPDRMPRP the value was 0.0124; for RRIRNRPPRLPRPRPRPDLKPRP, 0.0748; for RRIRDRPPRLPRPRPRPFKPPRP, 0.00312.
Under RRIRNRPPRLPRPRPRPKTHPRP stands -0.298; under RRIRVRPPRLPRPRPRPTWIPRP, 0.216.
Regarding RRIRSRPPRLPRPRPRPLFEPRP, the “shrunken log2 fold change” value was -0.0159.
For RRIRSRPPRLPRPRPRPPRKPRP the value was 0.73; for RRIRMRPPRLPRPRPRPEEHPRP, 2.85.
Under RRIRKRPPRLPRPRPRPEYRPRP stands 0.012.
In the case of RRIRVRPPRLPRPRPRPQVHPRP, the “shrunken log2 fold change” value is -0.14.
With RRIRERPPRLPRPRPRPATFPRP, the “shrunken log2 fold change” value was -0.177.
For RRIRHRPPRLPRPRPRPWYCPRP the value was -0.0324; for RRIRKRPPRLPRPRPRPPNWPRP, 0.593; for RRIRDRPPRLPRPRPRPYRNPRP, -0.00595.
For RRIRSRPPRLPRPRPRPDSNPRP the value was -0.529.
Under RRIRLRPPRLPRPRPRPMGNPRP stands -0.147; under RRIRCRPPRLPRPRPRPLQYPRP, -0.0878; under RRIRNRPPRLPRPRPRPAPMPRP, 0.237.
Take RRIRLRPPRLPRPRPRPPIDPRP: the “shrunken log2 fold change” value came to 0.13.
Under RRIRGRPPRLPRPRPRPYAFPRP stands 0.413.
Under RRIRWRPPRLPRPRPRPMTMPRP stands -0.385; under RRIRVRPPRLPRPRPRPTNRPRP, 3.75; under RRIRWRPPRLPRPRPRPMWLPRP, 0.244.
Under RRIRFRPPRLPRPRPRPDKFPRP stands -0.0567.
For the sequence RRIRTRPPRLPRPRPRPWHSPRP, the “shrunken log2 fold change” value is -0.274.
For RRIRFRPPRLPRPRPRPGDIPRP the value was 0.0113; for RRIRMRPPRLPRPRPRPCVVPRP, -0.0402; for RRIRPRPPRLPRPRPRPFQMPRP, -0.0867.
For RRIRRRPPRLPRPRPRPCNFPRP the value was -0.0159.
As for RRIRERPPRLPRPRPRPRIHPRP, the “shrunken log2 fold change” value is -0.737.
Turning to RRIRGRPPRLPRPRPRPMVQPRP, the “shrunken log2 fold change” value was 0.0883.
RRIRPRPPRLPRPRPRPCTVPRP: the “shrunken log2 fold change” value is 0.0392.
Under RRIRRRPPRLPRPRPRPWSFPRP stands 0.0517; under RRIRARPPRLPRPRPRPFQQPRP, 0.00604; under RRIRYRPPRLPRPRPRPDVFPRP, -0.0152.
For RRIRSRPPRLPRPRPRPTDWPRP the value was 0.354; for RRIRVRPPRLPRPRPRPCYEPRP, -0.246; for RRIRWRPPRLPRPRPRPWEVPRP, -0.0113.
As for RRIRRRPPRLPRPRPRPLQHPRP, the “shrunken log2 fold change” value turned out to be 0.387.
For RRIRGRPPRLPRPRPRPCTRPRP the value was 0.0901; for RRIRMRPPRLPRPRPRPMDAPRP, 0.781; for RRIRYRPPRLPRPRPRPTVFPRP, -0.317.
Under RRIRERPPRLPRPRPRPPLMPRP stands 0.0142.
Under RRIRDRPPRLPRPRPRPNTHPRP stands -0.292; under RRIRARPPRLPRPRPRPWLIPRP, 0.111; under RRIRVRPPRLPRPRPRPQHSPRP, -0.245.
RRIRRRPPRLPRPRPRPQRAPRP: the “shrunken log2 fold change” value was 0.226.
Under RRIRDRPPRLPRPRPRPCDQPRP stands 0.0112.
Consider RRIRGRPPRLPRPRPRPEMKPRP, for which the “shrunken log2 fold change” value came out at 0.73.
For RRIRCRPPRLPRPRPRPYEYPRP the value was -0.769.
Consider RRIRPRPPRLPRPRPRPQWDPRP, for which the “shrunken log2 fold change” value is -0.355.
For the sequence RRIRYRPPRLPRPRPRPYGCPRP, the “shrunken log2 fold change” value was -0.143.
Under RRIRRRPPRLPRPRPRPRVQPRP stands 0.445.
For RRIRWRPPRLPRPRPRPQQGPRP the value was 0.342; for RRIRYRPPRLPRPRPRPQRMPRP, -0.74; for RRIRSRPPRLPRPRPRPNPTPRP, 0.017.
On to RRIRSRPPRLPRPRPRPPNKPRP, for which the “shrunken log2 fold change” value was -0.0165.
As to RRIRQRPPRLPRPRPRPAGRPRP, the “shrunken log2 fold change” value worked out at 0.978.
Under RRIRVRPPRLPRPRPRPLTDPRP stands 0.0682; under RRIRTRPPRLPRPRPRPASKPRP, -0.05.
With RRIRGRPPRLPRPRPRPVTVPRP, the “shrunken log2 fold change” value was 0.0499.
As for RRIRRRPPRLPRPRPRPCYNPRP, the “shrunken log2 fold change” value was -0.41.
Take RRIRGRPPRLPRPRPRPQSSPRP: the “shrunken log2 fold change” value was found to be 0.000815.
Under RRIRYRPPRLPRPRPRPWTSPRP stands -0.039; under RRIRSRPPRLPRPRPRPQFQPRP, -0.124; under RRIRYRPPRLPRPRPRPFDQPRP, -0.401.
For RRIRHRPPRLPRPRPRPCPNPRP the value was -0.00414; for RRIRQRPPRLPRPRPRPYVTPRP, -0.253.
Under RRIRRRPPRLPRPRPRPPDEPRP stands 0.726; under RRIRGRPPRLPRPRPRPTWTPRP, 1.18.
As to RRIRGRPPRLPRPRPRPLIQPRP, the “shrunken log2 fold change” value stood at 0.827.
RRIRRRPPRLPRPRPRPFKGPRP: the “shrunken log2 fold change” value was 0.0185.
